Results from US20150098945A1 (Daiichi Sankyo, published 2015).

Columns and labels:
Assay in all cases: flow cytometry on transfected HEK293 cells
[1] = molecular target: N-terminal FLAG-tagged human ROBO1 (pCI-FLAG-hROBO1-transfected HEK293 cells) (human, UniProt Q9Y6N7 58-1651)
[2] = molecular target: T1, human ROBO3 (pCI-hROBO3-transfected HEK293 cells) (human, UniProt Q96MS0 21-1386)
T1 sequence: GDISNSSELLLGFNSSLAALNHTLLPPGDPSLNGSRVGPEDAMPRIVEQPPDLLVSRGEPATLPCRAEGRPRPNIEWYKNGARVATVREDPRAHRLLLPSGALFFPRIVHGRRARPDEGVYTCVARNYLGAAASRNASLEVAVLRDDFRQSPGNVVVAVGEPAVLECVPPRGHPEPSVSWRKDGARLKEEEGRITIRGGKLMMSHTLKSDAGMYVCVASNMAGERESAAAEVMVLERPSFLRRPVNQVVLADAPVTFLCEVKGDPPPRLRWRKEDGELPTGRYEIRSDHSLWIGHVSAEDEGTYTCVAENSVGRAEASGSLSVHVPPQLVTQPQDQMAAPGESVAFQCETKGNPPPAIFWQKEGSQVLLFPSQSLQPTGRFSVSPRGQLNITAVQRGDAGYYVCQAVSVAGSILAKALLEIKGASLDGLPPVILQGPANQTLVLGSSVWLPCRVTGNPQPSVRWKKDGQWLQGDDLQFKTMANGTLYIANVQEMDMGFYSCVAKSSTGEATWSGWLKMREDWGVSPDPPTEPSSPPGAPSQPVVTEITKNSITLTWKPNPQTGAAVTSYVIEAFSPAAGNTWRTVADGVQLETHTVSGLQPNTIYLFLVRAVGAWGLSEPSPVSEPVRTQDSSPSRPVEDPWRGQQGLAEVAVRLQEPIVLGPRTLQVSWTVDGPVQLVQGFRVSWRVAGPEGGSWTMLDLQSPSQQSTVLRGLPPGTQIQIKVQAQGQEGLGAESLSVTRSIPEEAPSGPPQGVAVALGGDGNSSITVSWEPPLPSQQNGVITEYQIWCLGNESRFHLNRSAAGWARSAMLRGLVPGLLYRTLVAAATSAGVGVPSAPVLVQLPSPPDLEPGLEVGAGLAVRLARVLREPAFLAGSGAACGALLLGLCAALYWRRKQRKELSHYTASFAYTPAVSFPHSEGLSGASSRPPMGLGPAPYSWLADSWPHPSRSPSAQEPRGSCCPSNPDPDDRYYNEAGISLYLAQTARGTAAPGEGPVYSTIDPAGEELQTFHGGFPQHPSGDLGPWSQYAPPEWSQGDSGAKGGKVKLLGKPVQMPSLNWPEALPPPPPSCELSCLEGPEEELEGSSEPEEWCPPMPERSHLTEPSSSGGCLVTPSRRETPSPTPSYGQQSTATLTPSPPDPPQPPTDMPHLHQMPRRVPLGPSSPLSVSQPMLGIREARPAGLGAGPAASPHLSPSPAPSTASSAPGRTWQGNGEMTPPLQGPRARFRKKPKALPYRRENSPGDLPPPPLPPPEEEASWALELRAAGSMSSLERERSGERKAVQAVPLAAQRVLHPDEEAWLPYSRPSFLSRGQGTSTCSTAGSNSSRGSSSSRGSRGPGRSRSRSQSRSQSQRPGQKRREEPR

[3] = molecular target: T2, rat ROBO4 (pCI-raROBO4-transfected HEK293 cells) (rat, UniProt Q80W87 38-949 at identity 0.93))
T2 chain: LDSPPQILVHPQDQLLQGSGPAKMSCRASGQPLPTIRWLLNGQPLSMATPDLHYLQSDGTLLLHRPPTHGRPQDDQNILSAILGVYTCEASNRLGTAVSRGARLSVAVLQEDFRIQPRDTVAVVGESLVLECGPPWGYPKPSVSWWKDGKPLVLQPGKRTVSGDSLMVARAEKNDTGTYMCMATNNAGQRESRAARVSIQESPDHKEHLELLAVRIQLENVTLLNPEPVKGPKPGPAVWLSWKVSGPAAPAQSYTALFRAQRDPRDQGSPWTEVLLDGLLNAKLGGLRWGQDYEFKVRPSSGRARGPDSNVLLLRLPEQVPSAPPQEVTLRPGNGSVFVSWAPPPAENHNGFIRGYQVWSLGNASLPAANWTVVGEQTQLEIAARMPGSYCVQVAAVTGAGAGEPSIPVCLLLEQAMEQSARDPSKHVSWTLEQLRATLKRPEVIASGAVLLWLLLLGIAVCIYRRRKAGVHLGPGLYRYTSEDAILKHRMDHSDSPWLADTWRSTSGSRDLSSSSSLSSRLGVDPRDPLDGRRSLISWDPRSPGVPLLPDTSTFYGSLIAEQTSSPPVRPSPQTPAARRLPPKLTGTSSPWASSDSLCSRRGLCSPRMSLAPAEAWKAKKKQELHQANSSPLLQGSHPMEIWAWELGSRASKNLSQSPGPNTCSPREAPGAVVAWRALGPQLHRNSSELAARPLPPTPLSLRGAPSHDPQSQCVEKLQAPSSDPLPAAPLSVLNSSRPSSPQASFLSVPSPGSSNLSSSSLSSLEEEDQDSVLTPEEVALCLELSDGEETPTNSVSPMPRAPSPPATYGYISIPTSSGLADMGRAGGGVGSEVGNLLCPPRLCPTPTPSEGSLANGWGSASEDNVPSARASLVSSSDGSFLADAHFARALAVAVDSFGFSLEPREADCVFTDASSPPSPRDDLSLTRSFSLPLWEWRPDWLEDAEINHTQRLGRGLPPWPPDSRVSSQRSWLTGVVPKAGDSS

N-terminal FLAG-tagged human ROBO1 (pCI-FLAG-hROBO1-transfected HEK293 cells), sequence (Q9Y6N7 other isoform, or with tags, fused parts or gaps): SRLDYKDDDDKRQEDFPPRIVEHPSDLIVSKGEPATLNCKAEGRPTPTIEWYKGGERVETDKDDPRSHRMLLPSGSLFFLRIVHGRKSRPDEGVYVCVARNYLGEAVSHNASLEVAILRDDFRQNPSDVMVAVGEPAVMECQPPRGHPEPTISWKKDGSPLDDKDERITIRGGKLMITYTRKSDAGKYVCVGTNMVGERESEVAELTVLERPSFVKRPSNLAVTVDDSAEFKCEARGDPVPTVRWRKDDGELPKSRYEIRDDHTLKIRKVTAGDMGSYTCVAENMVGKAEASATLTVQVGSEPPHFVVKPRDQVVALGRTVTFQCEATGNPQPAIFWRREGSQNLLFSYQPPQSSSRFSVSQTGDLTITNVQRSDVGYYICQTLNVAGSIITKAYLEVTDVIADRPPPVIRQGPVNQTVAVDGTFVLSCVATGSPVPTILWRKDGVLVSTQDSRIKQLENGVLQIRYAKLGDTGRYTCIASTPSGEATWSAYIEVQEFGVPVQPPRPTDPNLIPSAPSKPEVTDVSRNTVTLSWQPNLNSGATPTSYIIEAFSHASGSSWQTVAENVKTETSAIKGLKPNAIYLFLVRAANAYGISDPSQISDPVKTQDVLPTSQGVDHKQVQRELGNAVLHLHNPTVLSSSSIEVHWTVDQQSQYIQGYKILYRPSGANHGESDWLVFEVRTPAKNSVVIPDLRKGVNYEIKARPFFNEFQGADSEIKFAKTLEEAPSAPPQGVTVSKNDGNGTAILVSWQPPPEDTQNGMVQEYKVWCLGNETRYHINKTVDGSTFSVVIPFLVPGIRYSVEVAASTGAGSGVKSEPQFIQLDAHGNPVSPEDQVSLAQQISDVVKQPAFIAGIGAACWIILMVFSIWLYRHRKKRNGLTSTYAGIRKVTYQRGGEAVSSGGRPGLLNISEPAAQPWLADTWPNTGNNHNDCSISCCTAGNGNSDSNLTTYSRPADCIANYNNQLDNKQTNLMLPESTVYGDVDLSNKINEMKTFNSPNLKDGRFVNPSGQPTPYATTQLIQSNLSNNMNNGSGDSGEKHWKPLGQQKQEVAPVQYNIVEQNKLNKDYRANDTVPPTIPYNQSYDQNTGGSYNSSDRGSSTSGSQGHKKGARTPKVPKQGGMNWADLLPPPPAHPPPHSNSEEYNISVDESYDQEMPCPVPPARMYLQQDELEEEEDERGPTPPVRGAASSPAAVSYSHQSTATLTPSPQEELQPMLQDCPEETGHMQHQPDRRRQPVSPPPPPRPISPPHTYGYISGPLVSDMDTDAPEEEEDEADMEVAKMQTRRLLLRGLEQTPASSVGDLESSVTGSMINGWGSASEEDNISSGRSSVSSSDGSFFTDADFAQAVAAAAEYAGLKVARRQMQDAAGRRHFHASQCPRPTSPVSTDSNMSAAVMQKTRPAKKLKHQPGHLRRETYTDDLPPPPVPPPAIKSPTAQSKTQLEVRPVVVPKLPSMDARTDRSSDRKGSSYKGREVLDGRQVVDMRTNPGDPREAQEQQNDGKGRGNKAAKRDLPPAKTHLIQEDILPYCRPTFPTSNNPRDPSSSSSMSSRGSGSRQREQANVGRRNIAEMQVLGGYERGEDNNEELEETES

B1: humanized MAb1 antibody H-1140 (antibody, human IgG2, kappa, V domains shown)
VH: EVQLVESGGGLVQPGGSLRLSCAASGFTFSTYAMSWVRQAPGKGLEWVATISQGGTYTYYPDSVKGRFTISRDNAKNTLYLQMNSLRAEDTAVYYCARLIYYDYLDYWGQGTLVTVSS
VL: DIVMTQSPLSLPVTLGEPASISCRSSQSLENSNGNTYLNWYLQKPGQSPQLLIYRVSNRFSGVPDRFSGSGSGTDFTLKISRVEAEDVGVYYCLQVTHVPWTFGPGTKVDIKR
notes: Human IgG2 / kappa constant regions; also called hMAb1-H2-type heavy chain + hMAb1-L1-type light chain
[1]
  binding result: no binding (tested: 10 µg/mL (method of 4)-4-2))
[2]
  binding result: no binding (tested: 10 µg/mL (method of 4)-4-2))
[3]
  binding result: no binding (tested: 10 µg/mL (method of 4)-3-2))
